Results reported in publication PMC4303232.

Target: FADD (UniProt Q13158)
Assay: anti-flag immunoprecipitation, immunoblot
Settings: reference: wild type; sites S116

Substance: PEA15 (from UniProt Q15121) S116A
- binding against the reference: weaker
